The text below walks through data of patent US20250262210A1 (TRUSTEES OF COLUMBIA UNIVERSITY IN THE CITY OF NEW YORK, published 2025).

The test deals with T1, RPAP1 (human, UniProt Q9BWH6 1-1393, limits assumed).
T1 sequence (looked up): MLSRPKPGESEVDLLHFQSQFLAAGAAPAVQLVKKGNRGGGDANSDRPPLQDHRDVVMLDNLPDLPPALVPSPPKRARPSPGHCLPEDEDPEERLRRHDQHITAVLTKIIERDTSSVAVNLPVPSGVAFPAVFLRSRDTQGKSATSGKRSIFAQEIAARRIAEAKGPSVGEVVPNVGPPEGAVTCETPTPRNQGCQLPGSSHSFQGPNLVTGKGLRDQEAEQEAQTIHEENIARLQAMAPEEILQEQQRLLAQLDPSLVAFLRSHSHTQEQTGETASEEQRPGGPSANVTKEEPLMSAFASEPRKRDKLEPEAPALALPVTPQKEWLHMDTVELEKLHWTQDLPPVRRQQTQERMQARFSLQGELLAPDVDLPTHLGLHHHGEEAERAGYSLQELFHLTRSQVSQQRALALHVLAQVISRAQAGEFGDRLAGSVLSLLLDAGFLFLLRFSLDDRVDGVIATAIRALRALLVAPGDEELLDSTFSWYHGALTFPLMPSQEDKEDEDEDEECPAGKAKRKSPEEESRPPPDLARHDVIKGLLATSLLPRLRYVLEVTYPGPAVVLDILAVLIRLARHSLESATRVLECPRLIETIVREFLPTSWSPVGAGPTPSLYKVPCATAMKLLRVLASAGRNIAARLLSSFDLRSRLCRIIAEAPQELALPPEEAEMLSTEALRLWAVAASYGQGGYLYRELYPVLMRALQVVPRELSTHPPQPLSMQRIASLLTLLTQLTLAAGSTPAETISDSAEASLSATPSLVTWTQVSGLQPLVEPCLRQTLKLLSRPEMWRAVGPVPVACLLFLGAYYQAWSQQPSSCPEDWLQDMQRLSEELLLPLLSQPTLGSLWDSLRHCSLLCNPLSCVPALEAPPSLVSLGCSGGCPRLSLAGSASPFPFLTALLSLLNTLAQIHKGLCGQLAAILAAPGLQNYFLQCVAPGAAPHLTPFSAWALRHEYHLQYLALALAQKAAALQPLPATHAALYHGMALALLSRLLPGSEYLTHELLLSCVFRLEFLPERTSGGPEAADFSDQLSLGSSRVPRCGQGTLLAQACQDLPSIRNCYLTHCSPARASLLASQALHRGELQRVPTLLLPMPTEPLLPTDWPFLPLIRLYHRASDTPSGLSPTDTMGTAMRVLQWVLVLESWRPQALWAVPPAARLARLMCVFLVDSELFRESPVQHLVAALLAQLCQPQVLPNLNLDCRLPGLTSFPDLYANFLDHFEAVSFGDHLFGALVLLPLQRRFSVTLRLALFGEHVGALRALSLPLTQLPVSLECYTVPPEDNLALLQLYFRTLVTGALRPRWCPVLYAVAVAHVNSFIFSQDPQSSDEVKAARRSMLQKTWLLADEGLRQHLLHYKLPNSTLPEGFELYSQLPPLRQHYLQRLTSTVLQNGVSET
Put plainly: IP/MS, LZTR1 wild type-FLAG, U87. An outline of the steps: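 Extracted peptides in 3% acetonitrile/0.1% formic acid ran on a 50 cm C18 column into an Orbitrap Fusion, with MaxQuant identification and spectral counting.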

B1: LZTR1-FLAG (other, human, UniProt Q8N653 1-840, looked up)
chain: MAGPGSTGGQIGAAALAGGARSKVAPSVDFDHSCSDSVEYLTLNFGPFETVHRWRRLPPCDEFVGARRSKHTVVAYKDAIYVFGGDNGKTMLNDLLRFDVKDCSWCRAFTTGTPPAPRYHHSAVVYGSSMFVFGGYTGDIYSNSNLKNKNDLFEYKFATGQWTEWKIEGRLPVARSAHGATVYSDKLWIFAGYDGNARLNDMWTIGLQDRELTCWEEVAQSGEIPPSCCNFPVAVCRDKMFVFSGQSGAKITNNLFQFEFKDKTWTRIPTEHLLRGSPPPPQRRYGHTMVAFDRHLYVFGGAADNTLPNELHCYDVDFQTWEVVQPSSDSEVGGAEVPERACASEEVPTLTYEERVGFKKSRDVFGLDFGTTSAKQPTQPASELPSGRLFHAAAVISDAMYIFGGTVDNNIRSGEMYRFQFSCYPKCTLHEDYGRLWESRQFCDVEFVLGEKEECVQGHVAIVTARSRWLRRKITQARERLAQKLEQEAAPVPREAPGVAAGGARPPLLHVAIREAEARPFEVLMQFLYTDKIKYPRKGHVEDVLLIMDVYKLALSFQLCRLEQLCRQYIEASVDLQNVLVVCESAARLQLSQLKEHCLNFVVKESHFNQVIMMKEFERLSSPLIVEIVRRKQQPPPRTPLDQPVDIGTSLIQDMKAYLEGAGAEFCDITLLLDGHPRPAHKAILAARSSYFEAMFRSFMPEDGQVNISIGEMVPSRQAFESMLRYIYYGEVNMPPEDSLYLFAAPYYYGFYNNRLQAYCKQNLEMNVTVQNVLQILEAADKTQALDMKRHCLHIIVHQFTKVSKLPTLRSLSQQLLLDIIDSLASHISDKQCAELGADI
notes: Expressed in HEK 293T, HeLa or U87 cells; used as cell lysate; also called LZTR1 wild type-FLAG; LZTR1 WT; not shown: FLAG tag at the C-terminus
As to B1, the binding result was “binds”.
